US20180155451A1 (published 2018)

B1: GpH7-B3 variant E269_06M/GpL16-k0 (antibody, human IgG1, kappa)
heavy: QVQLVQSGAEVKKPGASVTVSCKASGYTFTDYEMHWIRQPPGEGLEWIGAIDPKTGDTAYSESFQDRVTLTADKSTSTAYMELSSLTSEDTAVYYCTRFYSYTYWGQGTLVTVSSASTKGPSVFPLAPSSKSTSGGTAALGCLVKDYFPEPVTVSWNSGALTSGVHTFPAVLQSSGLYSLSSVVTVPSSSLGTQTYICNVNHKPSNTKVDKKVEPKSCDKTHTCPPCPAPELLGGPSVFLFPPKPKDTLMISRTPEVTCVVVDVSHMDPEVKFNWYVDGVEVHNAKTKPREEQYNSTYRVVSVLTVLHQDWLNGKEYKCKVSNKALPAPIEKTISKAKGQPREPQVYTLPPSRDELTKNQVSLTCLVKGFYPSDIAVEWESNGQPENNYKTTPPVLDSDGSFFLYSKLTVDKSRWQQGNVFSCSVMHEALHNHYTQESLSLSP
light: DIVMTQSPLSLPVTPGEPASISCQASESLVHSNRNTYLHWYLQKPGQSPQLLIYKVSNRFSGVPDRFSGSGSGTDFTLKISRVEAEDVGVYYCSQNTHVPPTFGQGTKVEIERTVAAPSVFIFPPSDEQLKSGTASVVCLLNNFYPREAKVQWKVDNALQSGNSQESVTEQDSKDSTYSLSSTLTLSKADYEKHKVYACEVTHQGLSSPVTKSFNRGEC
notes: homodimerized; also called Ho Ab E269_06M
B2: GpH7-B3 variant E269_09D/GpL16-k0 (antibody, human IgG1, kappa)
heavy: not shown
light: B1 light
notes: homodimerized; also called Ho Ab E269_09D
B3: GpH7-B3 variant E269_15Y/GpL16-k0 (antibody, human IgG1, kappa)
heavy: not shown
light: B1 light
notes: homodimerized; also called Ho Ab E269_15Y
B4: GpH7-B3 variant E333_03V/GpL16-k0 (antibody, human IgG1, kappa)
heavy: not shown
light: B1 light
notes: homodimerized; also called Ho Ab E333_03V
B5: GpH7-B3 variant E333_05P/GpL16-k0 (antibody, human IgG1, kappa)
heavy: not shown
light: B1 light
notes: homodimerized; also called Ho Ab E333_05P
B6: GpH7-B3 variant H268_08L/GpL16-k0 (antibody, human IgG1, kappa)
heavy: not shown
light: B1 light
notes: homodimerized; also called Ho Ab H268_08L
B7: GpH7-B3 variant H268_14T/GpL16-k0 (antibody, human IgG1, kappa)
heavy: not shown
light: B1 light
notes: homodimerized; also called Ho Ab H268_14T
B8: GpH7-B3 variant E333_16H/GpL16-k0 (antibody, human IgG1, kappa)
heavy: not shown
light: B1 light
notes: homodimerized; also called Ho Ab E333_16H
B9: GpH7-B3 variant H268_20W/GpL16-k0 (antibody, human IgG1, kappa)
heavy: not shown
light: B1 light
notes: homodimerized; also called Ho Ab H268_20W
B10: GpH7-B3 variant E333_08L/GpL16-k0 (antibody, human IgG1, kappa)
heavy: not shown
light: B1 light
notes: homodimerized; also called Ho Ab E333_08L
B11: GpH7-B3 variant E333_04F/GpL16-k0 (antibody, human IgG1, kappa)
heavy: not shown
light: B1 light
notes: homodimerized; also called Ho Ab E333_04F
B12: GpH7-B3 variant I332_12R/GpL16-k0 (antibody, human IgG1, kappa)
heavy: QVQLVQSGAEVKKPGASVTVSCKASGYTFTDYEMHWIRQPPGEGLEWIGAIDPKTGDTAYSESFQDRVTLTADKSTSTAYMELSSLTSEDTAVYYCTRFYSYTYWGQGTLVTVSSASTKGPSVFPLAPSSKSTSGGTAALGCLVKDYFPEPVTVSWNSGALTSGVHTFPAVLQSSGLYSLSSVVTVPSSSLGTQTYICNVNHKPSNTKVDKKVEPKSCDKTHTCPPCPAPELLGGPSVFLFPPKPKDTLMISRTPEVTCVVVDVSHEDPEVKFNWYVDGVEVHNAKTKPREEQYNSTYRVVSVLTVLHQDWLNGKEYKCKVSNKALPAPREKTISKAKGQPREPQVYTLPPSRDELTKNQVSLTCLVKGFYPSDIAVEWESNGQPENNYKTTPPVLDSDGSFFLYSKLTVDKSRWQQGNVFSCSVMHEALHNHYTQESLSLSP
light: B1 light
notes: homodimerized; also called Ho Ab I332_12R
B13: GpH7-B3 variant I336_03V/GpL16-k0 (antibody, human IgG1, kappa)
heavy: not shown
light: B1 light
notes: homodimerized; also called Ho Ab I336_03V
B14: GpH7-B3 variant I336_10E/GpL16-k0 (antibody, human IgG1, kappa)
heavy: not shown
light: B1 light
notes: homodimerized; also called Ho Ab I336_10E
B15: GpH7-B3 variant E269_08L/GpL16-k0 (antibody, human IgG1, kappa)
heavy: not shown
light: B1 light
notes: homodimerized; also called Ho Ab E269_08L
B16: GpH7-B3 variant I336_04F/GpL16-k0 (antibody, human IgG1, kappa)
heavy: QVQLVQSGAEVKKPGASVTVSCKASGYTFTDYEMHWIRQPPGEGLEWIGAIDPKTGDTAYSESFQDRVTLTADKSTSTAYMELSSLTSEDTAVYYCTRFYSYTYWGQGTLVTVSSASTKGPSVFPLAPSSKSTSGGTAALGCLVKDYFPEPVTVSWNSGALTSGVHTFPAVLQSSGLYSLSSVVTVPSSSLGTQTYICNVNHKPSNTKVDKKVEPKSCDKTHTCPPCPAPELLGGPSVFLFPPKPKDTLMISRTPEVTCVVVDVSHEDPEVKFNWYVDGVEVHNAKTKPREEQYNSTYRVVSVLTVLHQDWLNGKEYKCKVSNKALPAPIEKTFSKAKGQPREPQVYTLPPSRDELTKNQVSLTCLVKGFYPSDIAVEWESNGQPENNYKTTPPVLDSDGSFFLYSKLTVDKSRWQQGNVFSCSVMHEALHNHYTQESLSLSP
light: B1 light
notes: homodimerized; also called Ho Ab I336_04F
B17: GpH7-B3 variant E269_20W/GpL16-k0 (antibody, human IgG1, kappa)
heavy: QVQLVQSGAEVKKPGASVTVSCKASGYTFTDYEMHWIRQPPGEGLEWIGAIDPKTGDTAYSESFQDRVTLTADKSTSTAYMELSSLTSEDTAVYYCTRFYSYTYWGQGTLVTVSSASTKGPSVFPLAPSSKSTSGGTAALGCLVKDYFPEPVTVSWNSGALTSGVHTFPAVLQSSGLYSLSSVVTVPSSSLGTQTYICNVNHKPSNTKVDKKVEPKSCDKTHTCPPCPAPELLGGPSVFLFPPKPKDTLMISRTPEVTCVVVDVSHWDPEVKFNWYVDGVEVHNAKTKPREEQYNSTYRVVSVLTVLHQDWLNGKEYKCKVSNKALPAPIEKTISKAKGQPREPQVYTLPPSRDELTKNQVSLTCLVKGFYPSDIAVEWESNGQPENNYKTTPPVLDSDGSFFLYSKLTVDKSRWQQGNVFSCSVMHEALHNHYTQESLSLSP
light: B1 light
notes: homodimerized; also called Ho Ab E269_20W
B18: GpH7-B3 variant K326_12R/GpL16-k0 (antibody, human IgG1, kappa)
heavy: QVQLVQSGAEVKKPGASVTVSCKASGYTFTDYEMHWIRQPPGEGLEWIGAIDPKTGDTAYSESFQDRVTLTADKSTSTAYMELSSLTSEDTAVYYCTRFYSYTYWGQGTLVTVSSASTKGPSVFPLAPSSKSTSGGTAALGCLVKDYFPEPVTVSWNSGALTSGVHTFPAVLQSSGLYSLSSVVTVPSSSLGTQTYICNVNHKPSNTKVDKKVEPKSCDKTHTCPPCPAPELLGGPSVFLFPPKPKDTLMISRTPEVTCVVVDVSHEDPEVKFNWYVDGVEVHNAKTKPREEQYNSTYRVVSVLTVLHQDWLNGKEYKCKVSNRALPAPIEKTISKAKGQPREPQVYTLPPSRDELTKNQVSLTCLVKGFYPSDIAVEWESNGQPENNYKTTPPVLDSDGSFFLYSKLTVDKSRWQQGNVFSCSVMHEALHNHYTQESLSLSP
light: B1 light
notes: homodimerized; also called Ho Ab K326_12R
B19: GpH7-B3 variant H268_05P/GpL16-k0 (antibody, human IgG1, kappa)
heavy: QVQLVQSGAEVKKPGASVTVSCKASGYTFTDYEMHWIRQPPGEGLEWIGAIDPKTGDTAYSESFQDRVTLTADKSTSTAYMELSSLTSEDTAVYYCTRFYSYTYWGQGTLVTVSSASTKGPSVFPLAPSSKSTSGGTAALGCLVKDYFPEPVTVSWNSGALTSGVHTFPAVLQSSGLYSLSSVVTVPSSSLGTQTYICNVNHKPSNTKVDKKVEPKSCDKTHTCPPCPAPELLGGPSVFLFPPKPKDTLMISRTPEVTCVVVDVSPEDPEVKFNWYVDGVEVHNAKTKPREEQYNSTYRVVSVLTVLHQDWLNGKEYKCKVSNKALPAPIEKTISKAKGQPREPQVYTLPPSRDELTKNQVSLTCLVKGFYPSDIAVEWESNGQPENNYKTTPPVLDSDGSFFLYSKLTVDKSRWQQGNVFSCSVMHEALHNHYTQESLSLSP
light: B1 light
notes: homodimerized; also called Ho Ab H268_05P
B20: GpH7-B3 variant E333_07I/GpL16-k0 (antibody, human IgG1, kappa)
heavy: not shown
light: B1 light
notes: homodimerized; also called Ho Ab E333_07I
B21: GpH7-B3 variant E333_09D/GpL16-k0 (antibody, human IgG1, kappa)
heavy: not shown
light: B1 light
notes: homodimerized; also called Ho Ab E333_09D
B22: GpH7-B3 variant G236_02A/GpL16-k0 (antibody, human IgG1, kappa)
heavy: not shown
light: B1 light
notes: homodimerized; also called Ho Ab G236_02A
B23: GpH7-B3 variant E269_07I/GpL16-k0 (antibody, human IgG1, kappa)
heavy: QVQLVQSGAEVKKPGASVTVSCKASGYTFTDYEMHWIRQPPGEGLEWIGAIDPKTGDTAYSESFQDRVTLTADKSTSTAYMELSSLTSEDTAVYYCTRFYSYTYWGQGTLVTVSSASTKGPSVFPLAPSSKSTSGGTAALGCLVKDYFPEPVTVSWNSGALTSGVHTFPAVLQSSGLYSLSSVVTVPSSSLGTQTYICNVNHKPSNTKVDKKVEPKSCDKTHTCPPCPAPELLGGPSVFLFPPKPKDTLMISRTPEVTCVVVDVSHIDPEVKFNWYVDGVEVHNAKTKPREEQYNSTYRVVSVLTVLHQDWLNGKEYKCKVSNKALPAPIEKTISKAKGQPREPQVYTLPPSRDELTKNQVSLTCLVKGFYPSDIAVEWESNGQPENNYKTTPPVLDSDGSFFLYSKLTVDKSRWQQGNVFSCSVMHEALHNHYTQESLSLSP
light: B1 light
notes: homodimerized; also called Ho Ab E269_07I
B24: GpH7-B3 variant E333_13S/GpL16-k0 (antibody, human IgG1, kappa)
heavy: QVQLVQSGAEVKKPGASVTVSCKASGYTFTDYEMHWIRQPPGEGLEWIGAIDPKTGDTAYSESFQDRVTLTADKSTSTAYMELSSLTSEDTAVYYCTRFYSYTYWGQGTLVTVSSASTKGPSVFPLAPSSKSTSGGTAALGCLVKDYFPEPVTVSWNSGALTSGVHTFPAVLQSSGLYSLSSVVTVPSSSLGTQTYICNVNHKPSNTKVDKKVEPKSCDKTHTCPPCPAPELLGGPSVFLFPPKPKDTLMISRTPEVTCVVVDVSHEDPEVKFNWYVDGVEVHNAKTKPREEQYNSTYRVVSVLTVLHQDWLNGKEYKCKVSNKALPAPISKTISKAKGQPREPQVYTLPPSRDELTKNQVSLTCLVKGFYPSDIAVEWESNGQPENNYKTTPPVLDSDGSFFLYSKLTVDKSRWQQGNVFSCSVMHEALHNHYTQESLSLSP
light: B1 light
notes: homodimerized; also called Ho Ab E333_13S
B25: GpH7-B3 variant H268_12R/GpL16-k0 (antibody, human IgG1, kappa)
heavy: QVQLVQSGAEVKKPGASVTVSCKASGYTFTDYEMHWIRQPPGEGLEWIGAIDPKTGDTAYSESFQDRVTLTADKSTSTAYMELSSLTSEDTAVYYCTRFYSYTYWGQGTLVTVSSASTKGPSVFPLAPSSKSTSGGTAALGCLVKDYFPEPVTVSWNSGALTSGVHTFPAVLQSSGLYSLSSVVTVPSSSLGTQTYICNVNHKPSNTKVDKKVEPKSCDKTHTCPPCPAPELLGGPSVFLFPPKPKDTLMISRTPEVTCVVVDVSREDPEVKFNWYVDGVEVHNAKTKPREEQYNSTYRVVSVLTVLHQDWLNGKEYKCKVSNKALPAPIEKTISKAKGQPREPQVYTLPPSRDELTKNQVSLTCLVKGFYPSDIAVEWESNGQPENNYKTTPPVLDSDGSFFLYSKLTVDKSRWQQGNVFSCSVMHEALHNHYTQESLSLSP
light: B1 light
notes: homodimerized; also called Ho Ab H268_12R
B26: GpH7-B3 variant E333_11K/GpL16-k0 (antibody, human IgG1, kappa)
heavy: not shown
light: B1 light
notes: homodimerized; also called Ho Ab E333_11K
B27: GpH7-B3 variant E269_18N/GpL16-k0 (antibody, human IgG1, kappa)
heavy: not shown
light: B1 light
notes: homodimerized; also called Ho Ab E269_18N
B28: GpH7-B3 variant I336_01G/GpL16-k0 (antibody, human IgG1, kappa)
heavy: not shown
light: B1 light
notes: homodimerized; also called Ho Ab I336_01G
B29: GpH7-B3 variant E269_14T/GpL16-k0 (antibody, human IgG1, kappa)
heavy: not shown
light: B1 light
notes: homodimerized; also called Ho Ab E269_14T
B30: GpH7-B3 variant H268_07I/GpL16-k0 (antibody, human IgG1, kappa)
heavy: not shown
light: B1 light
notes: homodimerized; also called Ho Ab H268_07I
B31: GpH7-B3 variant E333_15Y/GpL16-k0 (antibody, human IgG1, kappa)
heavy: not shown
light: B1 light
notes: homodimerized; also called Ho Ab E333_15Y
B32: GpH7-B3 variant H268_02A/GpL16-k0 (antibody, human IgG1, kappa)
heavy: not shown
light: B1 light
notes: homodimerized; also called Ho Ab H268_02A
B33: GpH7-B3 variant E269_16H/GpL16-k0 (antibody, human IgG1, kappa)
heavy: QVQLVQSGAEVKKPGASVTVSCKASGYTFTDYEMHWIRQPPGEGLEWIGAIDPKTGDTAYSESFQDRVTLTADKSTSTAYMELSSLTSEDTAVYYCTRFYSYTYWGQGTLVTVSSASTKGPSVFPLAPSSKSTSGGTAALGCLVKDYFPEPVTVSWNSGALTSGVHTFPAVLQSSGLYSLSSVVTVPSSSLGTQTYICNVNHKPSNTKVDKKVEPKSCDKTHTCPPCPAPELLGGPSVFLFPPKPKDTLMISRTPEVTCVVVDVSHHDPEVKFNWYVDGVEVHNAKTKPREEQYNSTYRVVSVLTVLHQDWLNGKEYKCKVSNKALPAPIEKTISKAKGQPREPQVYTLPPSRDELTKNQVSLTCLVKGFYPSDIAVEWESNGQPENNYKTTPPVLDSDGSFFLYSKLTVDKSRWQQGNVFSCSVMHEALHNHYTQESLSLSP
light: B1 light
notes: homodimerized; also called Ho Ab E269_16H
B34: GpH7-B3 variant I336_18N/GpL16-k0 (antibody, human IgG1, kappa)
heavy: not shown
light: B1 light
notes: homodimerized; also called Ho Ab I336_18N
B35: GpH7-B3 variant E333_06M/GpL16-k0 (antibody, human IgG1, kappa)
heavy: not shown
light: B1 light
notes: homodimerized; also called Ho Ab E333_06M
B36: GpH7-B3 variant I336_02A/GpL16-k0 (antibody, human IgG1, kappa)
heavy: not shown
light: B1 light
notes: homodimerized; also called Ho Ab I336_02A
B37: GpH7-B3 variant E269_19Q/GpL16-k0 (antibody, human IgG1, kappa)
heavy: not shown
light: B1 light
notes: homodimerized; also called Ho Ab E269_19Q
B38: GpH7-B3 variant I336_06M/GpL16-k0 (antibody, human IgG1, kappa)
heavy: not shown
light: B1 light
notes: homodimerized; also called Ho Ab I336_06M
B39: GpH7-B3 variant E333_02A/GpL16-k0 (antibody, human IgG1, kappa)
heavy: not shown
light: B1 light
notes: homodimerized; also called Ho Ab E333_02A
B40: GpH7-B3 variant E269_13S/GpL16-k0 (antibody, human IgG1, kappa)
heavy: not shown
light: B1 light
notes: homodimerized; also called Ho Ab E269_13S
B41: GpH7-B3 variant E333_14T/GpL16-k0 (antibody, human IgG1, kappa)
heavy: not shown
light: B1 light
notes: homodimerized; also called Ho Ab E333_14T
B42: GpH7-B3 variant E333_12R/GpL16-k0 (antibody, human IgG1, kappa)
heavy: not shown
light: B1 light
notes: homodimerized; also called Ho Ab E333_12R
B43: GpH7-B3 variant E333_01G/GpL16-k0 (antibody, human IgG1, kappa)
heavy: not shown
light: B1 light
notes: homodimerized; also called Ho Ab E333_01G
B44: GpH7-B3 variant G236_20W/GpL16-k0 (antibody, human IgG1, kappa)
heavy: not shown
light: B1 light
notes: homodimerized; also called Ho Ab G236_20W; GpH7-B3-03-20W/GpL16-k0

Target: T1, FcγRIa (human, UniProt P12314 16-292)
T1 construct: extracellular domain; also called FcgRI; CD64
Assay: SPR; vs GpH7-B3/GpL16-k0=100

T1 sequence (P12314 16-292): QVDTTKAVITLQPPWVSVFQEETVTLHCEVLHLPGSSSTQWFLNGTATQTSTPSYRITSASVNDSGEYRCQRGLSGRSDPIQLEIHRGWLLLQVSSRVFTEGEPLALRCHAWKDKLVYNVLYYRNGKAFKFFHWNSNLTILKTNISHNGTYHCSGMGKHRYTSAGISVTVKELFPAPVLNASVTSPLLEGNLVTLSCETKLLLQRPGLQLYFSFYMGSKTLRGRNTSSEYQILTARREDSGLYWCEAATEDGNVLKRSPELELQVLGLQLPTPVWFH

Ho/Con_1a	Binder
101 % of control	B1
106 % of control	B2
100 % of control	B3
98.4 % of control	B4
99.2 % of control	B5
105 % of control	B6
109 % of control	B7
99.1 % of control	B8
106 % of control	B9
99 % of control	B10
98.4 % of control	B11
93.2 % of control	B12
105 % of control	B13
107 % of control	B14
101 % of control	B15
104 % of control	B16
98.9 % of control	B17
100 % of control	B18
108 % of control	B19
99.9 % of control	B20
103 % of control	B21
92.4 % of control	B22

Ho/Con_1a	Binder
97.1 % of control	B23
101 % of control	B24
105 % of control	B25
95.8 % of control	B26
92.7 % of control	B27
104 % of control	B28
96.2 % of control	B29
106 % of control	B30
100 % of control	B31
106 % of control	B32
98.4 % of control	B33
104 % of control	B34
99.5 % of control	B35
103 % of control	B36
99.6 % of control	B37
104 % of control	B38
96.2 % of control	B39
95.9 % of control	B40
98.7 % of control	B41
94.2 % of control	B42
100 % of control	B43
104 % of control	B44
